In patent publication US20080102065A1 (published 2008):
Positions count from the first letter of the chain named.

T1: huEpoR expressed on the cell surface (UT-7 cells) (human, UniProt P19235 25-508)
T1 sequence (looked up): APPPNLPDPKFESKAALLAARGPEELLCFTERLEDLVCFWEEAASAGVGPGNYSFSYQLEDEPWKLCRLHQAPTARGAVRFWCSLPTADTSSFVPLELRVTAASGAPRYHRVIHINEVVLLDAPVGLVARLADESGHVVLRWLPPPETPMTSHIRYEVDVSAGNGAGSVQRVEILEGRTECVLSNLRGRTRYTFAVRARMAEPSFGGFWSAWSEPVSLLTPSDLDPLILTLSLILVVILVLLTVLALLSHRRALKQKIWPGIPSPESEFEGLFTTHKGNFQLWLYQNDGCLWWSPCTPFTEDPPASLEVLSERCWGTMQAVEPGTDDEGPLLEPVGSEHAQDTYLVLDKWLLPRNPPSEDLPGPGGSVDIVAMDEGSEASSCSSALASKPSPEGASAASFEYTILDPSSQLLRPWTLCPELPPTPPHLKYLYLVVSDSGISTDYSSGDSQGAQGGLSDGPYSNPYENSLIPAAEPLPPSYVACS

T2: cynomolgus monkey EpoR (cynoEpoR) (cynomolgus monkey, UniProt A0A2K5WKK4 25-250)
T2 construct: Soluble protein (coated in ELISA, analyte in SPR)
T2 sequence: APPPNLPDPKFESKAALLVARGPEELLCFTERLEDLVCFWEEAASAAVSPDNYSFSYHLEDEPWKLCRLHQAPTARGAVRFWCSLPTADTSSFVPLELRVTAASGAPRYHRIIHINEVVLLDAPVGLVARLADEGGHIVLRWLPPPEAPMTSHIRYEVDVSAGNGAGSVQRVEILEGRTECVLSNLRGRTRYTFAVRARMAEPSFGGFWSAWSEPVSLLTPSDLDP

T3: huEpoR protein (soluble human erythropoietin receptor) (human, UniProt P19235 25-250, limits assumed)
T3 construct: also called soluble huEpoR; biotinylated huEpoR
T3 sequence (looked up): T2 sequence with V19A, A47G, S49G, D51G, H58Q, I112V, G135S, I138V, A148T

T4: mouse EpoR (muEpoR) (mouse, UniProt P14753 25-249, limits assumed)
T4 sequence (looked up): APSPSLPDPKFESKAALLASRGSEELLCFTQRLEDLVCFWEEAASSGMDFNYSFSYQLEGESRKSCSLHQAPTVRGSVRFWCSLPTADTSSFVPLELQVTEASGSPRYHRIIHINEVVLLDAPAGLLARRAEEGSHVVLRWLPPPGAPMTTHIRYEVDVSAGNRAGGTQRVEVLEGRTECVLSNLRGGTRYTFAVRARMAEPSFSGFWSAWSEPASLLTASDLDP

B1: Mxb 15 (clone 15 scFv-Fc protein) (Fc fusion)
VH: QVQLQESGPGLVRPSGTLSLTCAVSGGSIGSSNWWSWVRQAPGKGLEWIGEISQSGSTNYNPSLKGRVTISLDRSRNQLSLKLSSVTAADTAVYYCARQLRSIDAFDIWGPGTTVTVSA
VL: SYVLTQPPSVSVSPGLTATITCSGDKLGDKYASWYQQKPGQSPVLVIYQDRKRPSGIPERFSGSNSGNTATLTISGTQAVDEADYYCQAWDSDTSYVFGTGTQLTVL
notes: Tested as scFv-Fc (maxibody) with an Fc derived from human IgG1
B2: Mxb 13 (clone 13 scFv-Fc protein) (Fc fusion)
VH: QVQLQQSGGGVVQPGRSLRLSCAASGFTFSDYAMHWVRQAPGKGLEWVAVISNHGKSTYYADSVKGRFTISRDNSKHMLYLQMNSLRADDTALYYCARDIALAGDYWGQGTLVTVSA
VL: DIQMTQSPSSLSASVGDRVTITCRASQSISSYLNWYQQLPGKVPKLLIYGASKLQSGVPSRFSGSGSGTDFTLTISSLQPEDFATYYCLQDYNYPLTFGPGTRLEIK
notes: as for B1
B3: Mxb 201 (clone 201 scFv-Fc protein) (Fc fusion)
VH: QVQLQESGSGLARPSQTLSLTCAVSGGSISSSAFSWNWIRQPPGKGLEWIGYIYHTGITDYNPSLKSRVTISVDRSKNQFSLNVNSVTAADTAVYYCARGHGSDPAWFDPWGKGTLVTVSS
VL: QSVLTQPPSVSVSPGQTASITCSGDKLGDKYASWYQQRPGQSPVLVIYRDTKRPSGIPERFSGSNSGNTATLTISGTQAVDEADYYCQAWDSTTSLVFGGGTKLTVL
notes: as for B1
B4: Mxb 378 (clone 378 scFv-Fc protein) (Fc fusion)
VH: QVQLVESGGGLVQPGRSLILSCAVSGFTFSKYWMTWVRQAPGKGLEWVANIKPDGSEKYYVESVKGRFTISRDNAKNSVYLQMNSVRAEDTAVYYCARVSRGGSFSDWSQGTLVTVSS
VL: QSALTQPPSASGSPGQSVTISCTGTSGDVGAYNYVSWYQQYPGKAPKLMIYEVSKRPSGVPDRFSGSKSGNTASLTVSGLQAEDEADYYCNSYRGSNGPWVFGGGTKVTVL
B5: Mxb 276 (clone 276 scFv-Fc protein) (Fc fusion)
VH: EVQLVQSGGGLVQPGGSLRLSCAASGFTFSSYWMSWVRQAPGKGLEWVANIKPDGSEKYYVDSVKGRFTISRDNAKNSVYLQMNSLRAEDTAVYYCARVSRGGSYSDWGRGTMVTVSS
VL: QSVLTQPPSASGSPGQSVTISCTGTSSDVGGFNYVSWYQKYPGKAPKLVIYEVSKRPSGVPDRFSGSKSGNTASLTVSGLQAEDEADYYCSSWAPGKNLFGGGTKLTVL
B6: Mxb 323 (clone 323 scFv-Fc protein) (Fc fusion)
VH: B4 VH with R16G, I19R, S109G, Q110R, L113M
VL: QSALTQPASVSGSPGQSITISCTGTSSDVGSYNLVSWYQQHPGKVPKLIIYEVSNRPSGVSHRFSGSKSGNTASLTISGLQAEDEADYYCSSLTSSGTWVFGGGTKVTVL
B7: Mxb 352 (clone 352 scFv-Fc protein) (Fc fusion)
VH: B5 VH with T28R, S35T, I70M, Y105F, R110Q, M113L
VL: QSALTQPASVSGSPGQSITIPCTGTSSDIGTYDYVSWYQQHPGKVPKVIIYEVTNRPSGVSNRFSGSKSGNTASLTISGLQADDEADYYCNSFTKNNTWVFGGGTKLTVL
B8: Mxb 330 (clone 330 scFv-Fc protein) (Fc fusion)
VH: B4 VH with Q1E, R16G, I19R, S109G
VL: QSALTQPPSASGSPGQSVTISCTGTSSDVGAYNYVSWYQQHPGKAPKLMIYEVARRPSGVPDRFSGSKSGNTASLTVSGLQAEDEADYYCSSYAGSNNFAVFGRGTKLTVL
notes: as for B1
B9: Mxb 307 (clone 307 scFv-Fc protein) (Fc fusion)
VH: B4 VH with Q1E, R16G, I19R, S109G, L113M
VL: QSVLTQPPSASGSPGQSVTISCTGTSSDVGGYNYVSWYQQHPDKAPRLMIYDVNKRPSGVPDRFSGSKSGNTASLTVSGLQAEDEAHYYCNSYAGSNNWVFGGGTQLTVL
notes: as for B1
B10: Mxb 319 (clone 319 scFv-Fc protein) (Fc fusion)
VH: QVQLVQSGAEIKKPGASVKVSCKTFGSPFSTNDIHWVRQAPGQGLEWMGIIDTSGAMTRYAQKFQGRVTVTRETSTSTVYMELSSLKSEDTAVYYCAREGCTNGVCYDNGFDIWGQGTLVTVSS
VL: DIQMTQSPSTLSASIGDRVTITCRASEGIYHWLAWYQQKPGKAPKLLIYKASSLASGAPSRFSGSGSGTDFTLTISSLQPDDFATYYCQQYSNYPLTFGGGTKLEIK
notes: as for B1
B11: Mxb 295 (clone 295 scFv-Fc protein) (Fc fusion)
VH: EVQLVESGGGLVQPGGSLRLSCAASGFTFSSYAMSWVRQAPGKGLEWVSGISGSGSSEGGTYYADSVKGRFTLSRDNSKNTLYLQMNSLRAEDTALYYCVKDRPSRYSFGYYFDYWGRGTLVTVSS
VL: LPVLTQPPSVSVSPGQTASIACSGNKLGDKYVSWYQQKPGQSPLLVIYQDTKRPSGIPERFSGSNSGNTATLTISGTQAMDEADYYCQAWDSSTDVVFGGGTKLTVL
notes: as for B1
B12: Mxb 16 (clone 16 scFv-Fc protein) (Fc fusion)
VH: QVQLQESGPGLVKPSETLSLTCTVSGGYINNYYWSWIRQPPGKGLEWIGYIHYSGSTYYNPSLKSRVTISEDTSKNQFSLKLSSATAADTAVYYCARVGYYYDSSGYNLAWYFDLWGRGTLVTVSA
VL: SSELTQDPAVSVALGQTVRITCQGDNLRSYSATWYQQKPGQAPVLVLFGENNRPSGIPDRFSGSKSGDTAVLTITGTQTQDEADYYCTSRVNSGNHLGVFGPGTQLTVL
notes: as for B1

Target: T1, huEpoR expressed on the cell surface …
Test: cell-based or functional assay

Row | Average EC50 (nM), UT-7-luciferase (STAT5 reporter) assay [nM] | Ratio (EC50 of Epo / EC50 of the scFv-Fc), UT-7-luciferase assay | Binder
1 | 2.8 | 0.003 | B1
2 | 4.03 | 0.002 | B2
3 | 8.28 | 0.001 | B3
4 | 0.055 | 0.175 | B4
5 | 0.322 | 0.03 | B5
6 | 0.613 | 0.016 | B6
7 | 2.16 | 0.004 | B7
8 | 0.0075 | 1.28 | B8
9 | 0.381 | 0.025 | B9
10 | 5.87 | 0.002 | B10
11 | 0.607 | 0.016 | B11

Target: T2, cynomolgus monkey EpoR (cynoEpoR)
Test: SPR, Biacore T100; scFv-Fc captured on anti-human IgG Fc CM5 chip, EpoR as analyte; 1:1 fit;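 also: measured at 25 °C in HBS-EP buffer with 0.1 mg/ml BSA, flowed at 50 µl/min, 1 min association then dissociation (10 min human, 5 min cyno EpoR)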
Method: (§1) Surface plasmon resonance experiments were conducted at 25° C. using a Biacore T100 instrument (Biacore AB, Uppsala, Sweden) equipped with a CM5 sensor chip. Each flow cell on the CM5 chips was activated with a 1:1 (v/v) mixture of 0.1 M N-hydroxysuccinimide (NHS) and 0.4 M1-ethyl-3-(3-dimethylaminopropyl) carbodiimide hydrochloride (EDC). Fcγ Fragment Specific AffiniPure Goat Anti-Human IgG antibody at 30 μg/ml in 10 mM sodium acetate, pH 5.0 was immobilized to two flow cells on the CM5 chips using standard amine coupling chemistry with a target level of 10,000 Resonance Units (RU). Residual reactive surfaces were deactivated with an injection of 1 M ethanolamine. The running buffer was then switched to HBS-EP+0.1 mg/ml BSA for all remaining steps.
(§2) For each scFv-Fc protein to be tested, the scFv-Fc protein was diluted in running buffer to 200 ng/ml and injected over the test flow cell at 10 μl/min for 2 minutes to capture the maxibody. […] A flow rate of 50 μl/min was used and a 1 minute association phase followed by a 5 minute (for cyno EpoR) or 10 minute (for hu EpoR) dissociation phase. After each cycle the surfaces were regenerated with a 30 second injection of 10 mM glycine pH 1.5. Fresh scFv-Fc protein was then captured on the test flow cell to prepare for the next cycle.

Row | Kd [nM] | koff [s⁻¹] | kon [M⁻¹ s⁻¹] | Binder
12 | 3130 | 0.115 | 37000 | B1
13 | 4360 | 0.283 | 65000 | B12
14 | 920 | 0.0597 | 65000 | B2
15 | 890 | 0.0965 | 108000 | B8
16 | 1210 | 0.361 | 299000 | B9
17 | 121 | 0.0258 | 213000 | B10
18 | 539 | 0.0221 | 41000 | B11

Target: T3, huEpoR protein (soluble human …)
Test: as above
Method: as §1, §2

Row | Kd [nM] | koff [s⁻¹] | kon [M⁻¹ s⁻¹] | Binder
19 | 1950 | 0.119 | 61000 | B1
20 | 2190 | 0.142 | 65000 | B12
21 | 1040 | 0.0568 | 55000 | B2
22 | 4030 | 0.0187 | 4600 | B3
23 | 45.4 | 0.0373 | 822000 | B8
24 | 108 | 0.246 | 2.28e+06 | B9
25 | 212 | 0.0335 | 158000 | B10
26 | 163 | 0.00296 | 18000 | B11

Target: T4, mouse EpoR (muEpoR)
Test: ELISA on coated muEpoR, scFv-Fc at 5 µg/ml (Example 17)
Method: The cross reactivity of certain clones in scFv-Fc format was tested using an ELISA Assay. […] 100 μl of 1 μg/ml (in 50 mM NaHCO3, pH8.5) cynoEpoR or muEpoR was added to each well on a polysorp ELISA plate and incubated at 4° C. overnight. After blocking the wells with 4% milk/PBS/0.1% Tween20 for 1 hour at room temperature, plates were washed three times with PBS/0.1% Tween20. 100 μl of 5 μg/ml scFv-Fc was added to each well and incubated for 1 hour at 25° C. […] ABTS (2,2′-azino-bis(3-ethylbenzthiazoline-6-sulfonic acid)) was used as a substrate and the absorption was measured at 405 nm on a plate reader.

Row | binding result | Binder
27 | no binding (tested: 5 µg/ml) | B1
28 | no binding (tested: 5 µg/ml) | B12
29 | no binding (tested: 5 µg/ml) | B2
30 | no binding (tested: 5 µg/ml) | B8
31 | no binding (tested: 5 µg/ml) | B9
32 | no binding (tested: 5 µg/ml) | B10
33 | no binding (tested: 5 µg/ml) | B11
